In patent publication US20230273213A1, “PEPTIDE DESIGN AND GALECTIN-3 INHIBITORS” (City of Hope, priority 2020, published 2023):

How the values were obtained:
GST-Galectin-3 = target: T1, GST-Galectin-3 (Homo sapiens, UniProt P17931); experiment: Galectin-3 mediated agglutination assay on LAX56 pre-B ALL cells; format: cell-based
T1 construct: Full-length human GST-Galectin-3 (hereafter named GST-Gal3) in pGEX2T was previously described; made in house
Protocol: Cells, culture and agglutination assay. LAX56 human pre-B ALL cells were routinely co-cultured with mitomycin-C inactivated OP9 stromal cells. These previously described primary leukemia cell grew directly out from a relapse bone marrow sample (36, 37). For agglutination assays, cells were harvested, washed once in α-MEM medium, resuspended in 10 ml X-VIVO 15 medium (Lonza) and incubated at 37° C. for 24 h remove the Galectin-3 produced by OP9 stromal cells. For the assay, ALL cells were resuspended in X-VIVO 15 medium at a concentration of 1×10^6/ml and seeded at 2×10^5/200 μl cells into wells. […] Peptides, if included, were preincubated for 5 minutes with the recombinant proteins and added at different concentrations as indicated in the figures. TD139 was purchased from MedChemExpress and used at 100 μM. Phase contrast images were taken after 1-2 hours. Agglutination was defined as aggregates containing >10 cells per cluster. 2-13 images from different areas were taken and evaluated for cell clusters per condition. Biological data were graphed with GraphPad Prism software (version8.3.1). Values represent mean±SEM of the number of aggregates scored per independent image.
We used two approaches to test this experimentally. Mutation of critical residues in that pocket could abolish binding to the IDR and the agglutination activity of Galectin-3. Also, a peptide could potentially fit in the shallow pocket and inhibit the IDR interaction. A classical test for carbohydrate-binding activity of a lectin including Galectin-3 is an agglutination assay (36, 38, 42). In this assay, recombinant Galectin-3 is tested for its ability to promote lattice formation by binding in a multivalent manner to glycoproteins located on the cell surface: when cell surface glycoprotein targets are located on different cells, carbohydrate binding combined with multimer formation causes cellular agglutination. […] Thus we used an agglutination assay in which recombinant Galectin-3 is added to patient-derived precursor B-acute lymphoblastic leukemia cells (pre-B ALL) as a readout for Galectin-3 lattice-forming activity.

GST-Gal3 L203A = target: T2, GST-Gal3 L203A (Homo sapiens, UniProt P17931, L203A); experiment: agglutination assay with GST-Gal3 L203A mutant; format: cell-based; details: LAX56 cells
T2 construct: Full-length human GST-Galectin-3 (hereafter named GST-Gal3) in pGEX2T was previously described; made in house; host or cells: E. coli BL21(DE3)
T2 sequence (P17931 whole entry L203A): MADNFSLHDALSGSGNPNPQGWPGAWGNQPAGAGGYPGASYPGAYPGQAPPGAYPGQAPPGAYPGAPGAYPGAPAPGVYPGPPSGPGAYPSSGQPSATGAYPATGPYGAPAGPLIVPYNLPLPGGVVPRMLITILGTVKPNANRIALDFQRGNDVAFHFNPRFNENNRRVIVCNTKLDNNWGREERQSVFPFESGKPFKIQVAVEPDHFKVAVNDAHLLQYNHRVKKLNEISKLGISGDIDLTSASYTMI
Protocol: (§1) Cells, culture and agglutination assay. LAX56 human pre-B ALL cells were routinely co-cultured with mitomycin-C inactivated OP9 stromal cells. These previously described primary leukemia cell grew directly out from a relapse bone marrow sample (36, 37). For agglutination assays, cells were harvested, washed once in α-MEM medium, resuspended in 10 ml X-VIVO 15 medium (Lonza) and incubated at 37° C. for 24 h remove the Galectin-3 produced by OP9 stromal cells. For the assay, ALL cells were resuspended in X-VIVO 15 medium at a concentration of 1×10^6/ml and seeded at 2×10^5/200 μl cells into wells. GST (12.5 μg/ml) or GST-Galectin-3 (25 μg/ml or 150 μg/ml, two different isolates) recombinant proteins were added in 300 μl X-VIVO 15 medium to duplicate wells. Peptides, if included, were preincubated for 5 minutes with the recombinant proteins and added at different concentrations as indicated in the figures. TD139 was purchased from MedChemExpress and used at 100 μM. Phase contrast images were taken after 1-2 hours. Agglutination was defined as aggregates containing >10 cells per cluster. 2-13 images from different areas were taken and evaluated for cell clusters per condition. Biological data were graphed with GraphPad Prism software (version8.3.1). Values represent mean±SEM of the number of aggregates scored per independent image.
(§2) GST-Galectin-3 and mutants. […]

GST-Gal3 L131A = target: T3, GST-Gal3 L131A (Homo sapiens, UniProt P17931, L131A); experiment: agglutination assay with GST-Gal3 L131A mutant; format: cell-based; details: LAX56 cells
T3 construct: Full-length human GST-Galectin-3 (hereafter named GST-Gal3) in pGEX2T was previously described; made in house; host or cells: E. coli BL21(DE3)
T3 sequence (P17931 whole entry L131A): as the sequence (P17931 whole entry L203A) above, with L131A, A203L counted along it
Protocol: as §1, §2

Galectin-3 CTD = target: T4, Galectin-3 CTD (Homo sapiens, UniProt P17931); experiment: 15N-1H HSQC NMR titration of Galectin-3 CTD with peptide-3; format: binding
T4 construct: We generated a Galectin-3 CTD construct including amino acids 117-250; GST (N, cleaved yes); made in house; host or cells: E. coli BL21(DE3), M9 medium with 15N ammonium chloride
T4 sequence (P17931 117-250): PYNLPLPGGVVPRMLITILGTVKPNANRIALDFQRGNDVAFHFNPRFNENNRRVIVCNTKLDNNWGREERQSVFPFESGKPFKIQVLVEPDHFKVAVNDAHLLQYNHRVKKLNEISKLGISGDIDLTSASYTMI
Protocol: Galectin-3 CTD construct for NMR. The Galectin-3 C-terminal domain construct was generated using the same methods described above for the mutants. The protein includes Galectin-3 amino acids P117-1250 as well as residual attached glycine and serine residues after thrombin cleavage. Single colonies were grown overnight in LB+ amp, collected by centrifugation then inoculated in M9 media with ammonium-^15N chloride (Sigma) and grown for 3-4 hours. After induction of protein production with IPTG for an 3-4 additional hrs, cells were harvested and suspended in 1% NP40, PI, PMSF, 1 mM DTT, 50 mM Tris-HCl, pH 7.5. Cells were disrupted by sonication. GST-Galectin-3 was bound to glutathione-agarose (Genscript Cat #L00207) overnight at 4° C. Beads were washed 4× in lysis buffer, then suspended in 50 mM Tris-HCl pH 7.5, 0.1 mM DTT and treated with 60 u thrombin/ml (Fisher Cytiva Thrombin Protease) for 16 hrs at RT. The supernatant containing Galectin-3 protein was treated with benzamidine sepharose (Sigma, HiTrap Benzamidine FF) to bind and remove thrombin. Protein was concentrated using an Amicon 3K filter and used in 20 mM potassium phosphate buffer pH 6.8, 0.1 mM DTT for NMR. Protein concentrations were determined by BCA.
NMR. ^15N-^1H HSQC 700 MHz spectra were acquired with 20 μM Galectin-3 CTD [in 20 mM potassium phosphate buffer, pH 6.8, 0.1 mM DTT] and different molar ratios of added peptide-3 as indicated in FIG. 5. The chemical shift perturbation (CSP) 06 was calculated using the following equation: Δ\ delta=√{square root over ((ΔωN^2+ΔωH^2)/2)}. The ΔωN and ΔωH are the nitrogen and proton chemical shift difference between free ^15N-CTD and that in the mixture with P3 peptide. Assignments are based on the Galectin-3 CTD NMR data of Ippel (25) and Umemoto (39). […] Because L135 and W181 patterns differ between Ippel and Umemoto, their assignments could not be unambiguously determined. […]

[1] = GST-Gal3, 1-2 hours, peptide preincubated 5 minutes with protein

T1 sequence (P17931 2-250): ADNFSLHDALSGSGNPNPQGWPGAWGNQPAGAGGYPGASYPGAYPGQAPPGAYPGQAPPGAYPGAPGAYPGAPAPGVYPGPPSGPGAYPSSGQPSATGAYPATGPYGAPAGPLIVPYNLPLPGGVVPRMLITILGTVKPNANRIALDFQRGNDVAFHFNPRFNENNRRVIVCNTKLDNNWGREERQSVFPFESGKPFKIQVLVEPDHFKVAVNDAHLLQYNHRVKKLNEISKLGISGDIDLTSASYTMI

OC[C@H]1O[C@@H](S[C@@H]2O[C@H](CO)[C@H](O)[C@H](n3cc(-c4cccc(F)c4)nn3)[C@H]2O)[C@H](O)[C@@H](n2cc(-c3cccc(F)c3)nn2)[C@H]1O [TD139, 3-deoxy-3-[4-(3-fluorophenyl)-1H-1,2,3-triazol-1-yl]-β-D-galactopyranosyl 3-deoxy-3-[4-(3-fluorophenyl)-1H-1,2,3-triazol-1-yl]-1-thio-β-D-galactopyranoside, reference compound]
effect on Galectin-3-mediated agglutination (GST-Galectin-3; GST-Gal3, 100 μM, positive control): clearly inhibited

ACE-YYPGAYPRRYR-NH2 (Ac-YYPGAYPRRYR-NH2) [Peptide 3]
effect on Galectin-3-mediated agglutination (GST-Galectin-3; [1]): positive hit
effect on Galectin-3-mediated agglutination (GST-Galectin-3; GST-Gal3, 1-2 hours, peptide preincubated 5 minutes with protein, listed as P3): efficiently inhibits
effect on Galectin-3-mediated agglutination (GST-Galectin-3; GST-Gal3, 1-2 hours, peptide preincubated 5 minutes with protein, listed as YYPGAYPRRYR): inhibits Galectin-3 mediated agglutination
effect on Galectin-3-mediated agglutination (GST-Galectin-3; GST-Gal3, 1-2 hours, peptide preincubated 5 minutes with protein, listed as peptide 3): inhibits agglutination
effect on Galectin-3-mediated agglutination (GST-Galectin-3; GST-Gal3, 1-2 hours, peptide preincubated 5 minutes with protein, listed as peptide-3): clearly was inhibitory
inhibition of agglutination mediated by the L203A mutant (GST-Gal3 L203A): could still be inhibited
inhibition of agglutination mediated by the L131A mutant (GST-Gal3 L131A): largely insensitive to inhibition
contacts with the CTD by NMR (Galectin-3 CTD; 20 μM 15N CTD, up to 100:1 peptide:CTD): makes extensive contacts with amino acids in the CTD
shift of S-face residues R186, K227 or Y221 upon exposure (Galectin-3 CTD; data not shown): no shift
chemical shift perturbation (CSP) of residue T248 (Galectin-3 CTD; one unit of RMSD): about 10.9 Hz

N-terminal acetyl-ARAFGYPIYSY-C-terminal amide (Ac-ARAFGYPIYSY-NH2) [Peptide 2]
effect on Galectin-3-mediated agglutination (GST-Galectin-3; [1]): had no effect on agglutination

ANTPCGPYTHDCPVKR [Peptide-4, reference compound]
effect on Galectin-3-mediated agglutination (GST-Galectin-3; [1]): did not have an effect

ACE-ARAMGYPGASY-NH2 (Ac-ARAMGYPGASY-NH2) [Peptide 1]
effect on Galectin-3-mediated agglutination (GST-Galectin-3; [1]): had no effect on agglutination

PTHVTCKYCPAGNRDP [Peptide-5, scrambled negative control peptide described in the same study, reference compound]
effect on Galectin-3-mediated agglutination (GST-Galectin-3; [1]): did not have an effect
